Test results taken from patent US20200190209A1 (BLACK BELT THERAPEUTICS, published 2020).
Changes are numbered by the printed parent chain. Several values for one entry are separate records, joined by “and”; a condition that tells them apart may be missing. Identical values can stand only once. Like-named read-outs stand apart in the source and are kept apart here.

Columns and labels:
[1] = target: T1, recombinant human CD38 his tagged (extracellular domain) (human, UniProt P28907 43-300); experiment: SPR Biacore 2000; IgG1 captured, rhCD38-his as analyte
T1 construct: also called rhCD38; rhCD38-his; not shown: Histidine tag

[2] = target: T1, recombinant human CD38 his tagged …; experiment: Octet BLI, avidity; rhCD38-his on Ni-NTA sensor, IgG1 in solution
Procedure: Avidity binding measurements of anti-CD38 Antibodies: Ni-NTA sensors were equilibrated off-line in assay buffer for 30 minutes and then monitored on-line for 60 seconds for baseline establishment. […] Then the antibody was associated at different concentrations (as described in FIGS. 25 and 30) for 30-50 minutes. Afterwards they were transferred to assay buffer for 20-30 min for off-rate measurement. Kinetics data were fit using a 1:1 binding model in the data analysis software provided by ForteBio.

[3] = target: T2, human CD38 (full length, on cells) (human, UniProt P28907 1-300); experiment: cell-based or functional assay
[4] = target: T1, recombinant human CD38 his tagged …; experiment: Octet BLI, affinity, monovalent human CD38-HIS; IgG1
[5] = target: T1, recombinant human CD38 his tagged …; experiment: summary, human CD38 extracellular protein
[6] = target: T1, recombinant human CD38 his tagged …; experiment: Octet BLI, affinity, monovalent human CD38-HIS; IgG4
[7] = target: T2, human CD38 (full length, on cells); experiment: flow cytometry titration on human PBMC, gated on CD4-positive cells
[8] = target: T2, human CD38 (full length, on cells); experiment: cell-based or functional assay; remark: listed apart in the source
[9] = target: T2, human CD38 (full length, on cells); experiment: flow cytometry titration on human PBMC, gated on CD8-positive cells
[10] = target: T2, human CD38 (full length, on cells); experiment: flow cytometry, binding to Daudi cells
[11] = target: T3, Cynomolgus monkey CD38 (on T cells) (Cynomolgus monkey, UniProt Q5VAN0 1-301); experiment: flow cytometry titration on cynomolgus T cells, gated on CD4-positive cells
T3 construct: whole, on cells; also called cyno CD38

[12] = target: T2, human CD38 (full length, on cells); experiment: cell-based or functional assay; remark: listed apart in the source
[13] = target: T3, Cynomolgus monkey CD38 (on T cells); experiment: flow cytometry titration on cynomolgus T cells, gated on CD8-positive cells
[14] = target: T1, recombinant human CD38 his tagged …; experiment: Octet BLI affinity, rhCD38
[15] = target: T1, recombinant human CD38 his tagged …; experiment: SPR Biacore affinity, rhCD38-his
Procedure: (§1) Anti-human antibody was initially immobilised across all flow cells in analysis buffer (pH 7.4, 10mM HEPES, 150mM NaCl, 3mM EDTA, 0.05% Tween 20) to an RU of between 12,000-14,000 over 10 minutes. […] Dissociation was performed in analysis buffer over 10 minutes. Regeneration steps between sample concentrations were performed in 3M MgCl₂, three times for 0.5 minutes. A flow rate of 25 μl/min was maintained throughout the process. Kinetics data were fit using a global fit on the analysis software provided by Biacore with reference subtraction.

[16] = target: T2, human CD38 (full length, on cells); experiment: cell-based or functional assay; remark: listed apart in the source
[17] = target: T2, human CD38 (full length, on cells); experiment: cell-based or functional assay; remark: listed apart in the source
[18] = target: T2, human CD38 (full length, on cells); experiment: flow cytometry, binding to Daudi cells; remark: listed apart in the source
[19] = target: T1, recombinant human CD38 his tagged …; experiment: SPR Biacore affinity, rhCD38-his; remark: listed apart in the source
Procedure: as §1

[20] = target: T1, recombinant human CD38 his tagged …; experiment: Octet BLI affinity, rhCD38; remark: listed apart in the source
[21] = target: T1, recombinant human CD38 his tagged …; experiment: Octet BLI affinity, rhCD38; Octet value of Table 5 (variant comparison); Table 1A gives 3.38E-09 for IgG1
[22] = target: T2, human CD38 (full length, on cells); experiment: flow cytometry titration on human cells, gated on CD4-positive cells
Procedure: (§2) Unbound primary antibody was removed by washing followed by staining with a secondary antibody (5 μg/ml) 30 minutes on ice. All samples were stained in triplicates with appropriate CD3, CD4 and CD8 cross-reactive antibodies. Samples were measured by flow cytometry. For data analysis live cells were gated using FSC vs SSC parameters during sample acquisition. Mean fluorescence intensities (MFI) of stained cells were plotted on an XY chart, graphing MFI against the log of the concentration and the data fit to a non-linear regression curve from which the EC50 was calculated.

[23] = target: T3, Cynomolgus monkey CD38 (on T cells); experiment: flow cytometry titration on cynomolgus T cells, gated on CD4-positive and on CD8-positive cells
Procedure: as §2

[24] = target: T2, human CD38 (full length, on cells); experiment: flow cytometry titration on human cells, gated on CD8-positive cells
Procedure: as §2

[25] = target: T1, recombinant human CD38 his tagged …; experiment: Octet BLI, affinity, monovalent human CD38-HIS; yeast produced

T3 sequence (Q5VAN0 whole entry): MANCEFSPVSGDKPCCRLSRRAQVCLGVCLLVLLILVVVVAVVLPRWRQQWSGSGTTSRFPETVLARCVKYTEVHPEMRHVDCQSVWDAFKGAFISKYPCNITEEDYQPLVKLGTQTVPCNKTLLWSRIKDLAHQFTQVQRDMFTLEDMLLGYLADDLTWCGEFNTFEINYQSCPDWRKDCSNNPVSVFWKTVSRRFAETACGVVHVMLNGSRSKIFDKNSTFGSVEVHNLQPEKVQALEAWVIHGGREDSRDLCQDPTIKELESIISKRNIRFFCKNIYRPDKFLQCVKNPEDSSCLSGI

B1: aCD38-a-327 (human IgG1) (antibody, V domains shown)
VH: QVQLQESGPGLVKPSQTLSLTCTVSGGSISSGGYYWSWIRQHPGKGLEWIGYIYYSGSTYYNPSLKSRVTISVDTSKNQFSLKLSSVTAADTAVYYCARAKSELVLPYYYYMDVWGKGTTVTVSS
VL: not shown
notes: Human IgG1
B1 was tested, and the Kd [1] was 1 nM, the Kd [2] was 0.0181 nM and the “ADCC EC50, Daudi target cells” value [3] was 30 ng/mL. For the same binder, the “ADCC max. lysis, Daudi target cells” value [3] was 55%, the Kd [4] was 2.3 nM and the Kd [5] was about 1 nM.

B2: aCD38-a-327 (IgG4) (antibody, V domains shown)
VH: B1 VH
VL: not shown
B2 was tested, and the Kd [6] was 2.99 nM.

B3: aCD38-b-348 (human IgG1) (antibody, V domains shown)
VH: QLQLQESGPGLVKPSETLSLTCTVSGGSISSSDYYWGWIRQPPGKGLEWIGSIYYSGSTYYNPSLKSRVTISVDTSKNQFSLKLSSVTAADTAVYYCARGQYSSGWYAYPFDMWGQGTMVTVSS
VL: EIVLTQSPGTLSLSPGERATLSCRASQSVRSSYLAWYQQKPGQAPRLLIYGASSRATGIPDRFSGSGSGTDFTLTISRLEPEDFAVYYCQQDGNVYTFGGGTKVEIK
notes: Human IgG1
With B3 the “EC50 (read off the curve)” value [7] was about 0.4 nM, the “CDC EC50, Daudi cells, 10% complement” value [8] was 0.17 µg/mL and 0.34 µg/mL and 0.26 µg/mL and the “EC50 (read off the curve)” value [9] was about 0.4 nM. For the same binder, the Kd [1] was 2 nM, the Kd [2] was 0.177 nM and the “ADCC EC50, Daudi target cells” value [3] was 0.32 ng/mL and 0.8 ng/mL and 0.42 ng/mL. For the same binder, the EC50 [10] was 0.341 µg/mL, the “Max MFI” value [10] was 2320 MFI and the “EC50 (read off the curve)” value [11] was about 0.7 µg/mL. The “ADCC target lysis EC50” value [12] was 5.9 ng/mL, the “ADCC target lysis, max. % lysis” value [12] was 44% and the Kd [4] was 8.81 nM. For the same binder, the “EC50 (read off the curve)” value [13] was about 0.8 µg/mL, the Kd [14] was 5.79 nM and the Kd [15] was 2 nM. For the same binder, the “CDC EC50, Raji cells, 10% complement” value [16] was 0.3 µg/mL and the “CDC EC50, Raji cells, 10% complement (repeat)” value [16] was 0.17 µg/mL.

B4: aCD38-b-348 (IgG4) (antibody, V domains shown)
VH: B3 VH
VL: B3 VL
B4 was tested, and the Kd [6] was 9.24 nM.

B5: aCD38-b-348-m2 (antibody, IgG1, V domains shown)
VH: B3 VH
VL: B3 VL with G93S
In the case of B5, the EC50 [10] is reported as 0.499 µg/mL, the “Max MFI” value [10] is reported as 2220 MFI and the “ADCC target lysis EC50” value [12] is reported as 2.5 ng/mL. The “ADCC target lysis, max. % lysis” value [12] was 44%, the Kd [14] was 39.9 nM and the Kd [15] was 6.8 nM.

B6: aCD38-b-329-m6 (antibody, IgG1, V domains shown)
VH: B3 VH
VL: B3 VL with G93E, N94A, Y96F
B6 was tested, and the “ADCC target lysis EC50” value [17] was 2.4 ng/mL, the “ADCC target lysis, max. % lysis” value [17] was 47% and the EC50 [18] was 0.651 µg/mL. The “Max MFI” value [18] was 2300 MFI, the Kd [19] was 4.7 nM and the Kd [20] was 19.9 nM.

B7: aCD38-b-329-m7 (antibody, IgG1, V domains shown)
VH: B3 VH
VL: B3 VL with G93S, N94A, Y96F
With B7 the “ADCC target lysis EC50” value [17] was 3.5 ng/mL, the “ADCC target lysis, max. % lysis” value [17] was 43% and the EC50 [18] was 0.745 µg/mL. The “Max MFI” value [18] was 2210 MFI, the Kd [19] was 4.9 nM and the Kd [20] was 26 nM.

B8: aCD38-b-348-m4 (antibody, IgG1, V domains shown)
VH: B3 VH
VL: B3 VL with D92E
With B8 the EC50 [10] was 0.299 µg/mL, the “Max MFI” value [10] was 2020 MFI and the “ADCC target lysis EC50” value [12] was 1.4 ng/mL. For the same binder, the “ADCC target lysis, max. % lysis” value [12] was 38%, the Kd [14] was 70.1 nM and the Kd [15] was 27 nM.

B9: aCD38-b-348-m1 (antibody, IgG1, V domains shown)
VH: B3 VH
VL: B3 VL with D92E, G93A
notes: also called aCD38-b-348-ml
B9 was tested, and the EC50 [10] was 0.485 µg/mL, the “Max MFI” value [10] was 1610 MFI and the “ADCC target lysis EC50” value [12] was 2.8 ng/mL. The “ADCC target lysis, max. % lysis” value [12] was 38%, the Kd [14] was 24.7 nM and the Kd [15] was 63 nM.

B10: aCD38-b-329 (human IgG1) (antibody, V domains shown)
VH: B3 VH
VL: B3 VL with N94A, Y96F
notes: Human IgG1
With B10 the Kd [1] was 0.62 nM, the Kd [21] was 2.38 nM and the “ADCC target lysis EC50” value [17] was 6.2 ng/mL. The “ADCC target lysis, max. % lysis” value [17] was 49%, the EC50 [18] was 0.734 µg/mL and the “Max MFI” value [18] was 2510 MFI. The “ADCC EC50, Daudi target cells” value [3] was 11 ng/mL and 6.2 ng/mL, the Kd [19] was 0.62 nM and the Kd [4] was 3.38 nM. The Kd [5] was about 1 nM.

B11: aCD38-b-348-m3 (antibody, IgG1, V domains shown)
VH: B3 VH
VL: B3 VL with G93A
B11 was tested, and the EC50 [10] was 0.558 µg/mL, the “Max MFI” value [10] was 2100 MFI and the “ADCC target lysis EC50” value [12] was 4.3 ng/mL. The “ADCC target lysis, max. % lysis” value [12] was 39%, the Kd [14] was 55.1 nM and the Kd [15] was 28 nM.

B12: aCD38-a-306 (human IgG1) (antibody, V domains shown)
VH: not shown
VL: DIQMTQSPSSLSASVGDRVTITCRASQSISSYLNWYQQKPGKAPKLLIYGASSLQSGVPSRFSGSGSGTDFTLTISSLQPEDFATYYCQQRSSTPITFGGGTKVEIK
notes: Human IgG1
With B12 the “EC50 (read off the curve)” value [22] was about 0.4 µg/mL, the “CDC EC50, Daudi cells, 10% complement” value [8] was 0.19 µg/mL and the “CDC max. lysis, Daudi cells, 10% complement” value [8] was 16.9%. For the same binder, the Kd [1] was 1.2 nM, the binding result [23] was “no binding (tested: about 20 µg/ml (log 1.3))” and the Kd [2] was 0.0735 nM. For the same binder, the “ADCC EC50, Daudi target cells” value [3] was 1.3 ng/mL, the “ADCC max. lysis, Daudi target cells” value [3] was 43% and the “EC50 (read off the curve)” value [24] was about 0.2 µg/mL.

B13: aCD38-a-306 (yeast produced) (antibody, V domains shown)
VH: not shown
VL: B12 VL
B13 was tested, and the Kd [25] was 48 nM.
